Assay results from patent US20200024322A1 (Eli Lilly, published 2020).
Where a chain is given by its changes, count along the chain named.

B1: (D-Tyr)-Aib-EGTFTSDYSI-αMeL-LD-Orn-K((2-[2-(2-Amino-ethoxy)-ethoxy]-acetyl)2-(γ-Glu)-CO-(CH2)18-CO2H)AQ-Aib-AFVEYLIEGGPSSGAPPPS-NH2 (peptide)
peptide: XXEGTFTSDYSIXLDXKAQXAFVEYLIEGGPSSGAPPPS
modifications: D-Tyr1; Aib2; αMeL13; Orn16; K17 conjugated to (2-[2-(2-Amino-ethoxy)-ethoxy]-acetyl)2-(γ-Glu)-CO-(CH2)18-CO2H; Aib20; C-terminal amide (NH2)
B2: (D-Tyr)-Aib-EGTFTSDYSI-αMeL-LDKK((2-[2-(2-Amino-ethoxy)-ethoxy]-acetyl)-(γ-Glu)-CO-(CH2)18-CO2H)AQ-Aib-EFIEYLIAGGPSSGAPPPS-NH2 (peptide)
peptide: B1 peptide with X16K, A21E, V23I, E28A
modifications: D-Tyr1; Aib2; αMeL13; K17 conjugated to (2-[2-(2-Amino-ethoxy)-ethoxy]-acetyl)-(γ-Glu)-CO-(CH2)18-CO2H; Aib20; C-terminal amide (NH2)
B3: (D-Tyr)-Aib-EGTFTSDYSI-αMeL-LD-Orn-K((2-[2-(2-Amino-ethoxy)-ethoxy]-acetyl)-(γ-Glu)-CO-(CH2)18-CO2H)AQ-Aib-EFIEYLIAGGPSSGAPPPS-NH2 (peptide)
peptide: B1 peptide with A21E, V23I, E28A
modifications: D-Tyr1; Aib2; αMeL13; Orn16; K17 conjugated to (2-[2-(2-Amino-ethoxy)-ethoxy]-acetyl)-(γ-Glu)-CO-(CH2)18-CO2H; Aib20; C-terminal amide (NH2)
B4: (D-Tyr)-Aib-EGTFTSDYSI-αMeL-LD-Orn-K((2-[2-(2-Amino-ethoxy)-ethoxy]-acetyl)2-(D-(γ-Glu)-CO-(CH2)16-CO2H)AQ-Aib-AFI-Glu)-YLIAGGPSSGAPPPS-NH2 (peptide)
peptide: B1 peptide with V23I, E24X, E28A
modifications: D-Tyr1; Aib2; αMeL13; Orn16; K17 conjugated to (2-[2-(2-Amino-ethoxy)-ethoxy]-acetyl)2-(γ-Glu)-CO-(CH2)16-CO2H; Aib20; C-terminal amide (NH2)
B5: (D-Tyr)-Aib-EGTFTSDYSI-αMeL-LD-Orn-K((2-[2-(2-Amino-ethoxy)-ethoxy]-acetyl)2-(γ-Glu)-CO-(CH2)16-CO2H)AQ-Aib-AFV-(D-Glu)-YLIAGGPSSGAPPPS-NH2 (peptide)
peptide: B1 peptide with E24X, E28A
modifications: D-Tyr1; Aib2; αMeL13; Orn16; K17 conjugated to (2-[2-(2-Amino-ethoxy)-ethoxy]-acetyl)2-(γ-Glu)-CO-(CH2)16-CO2H; Aib20; D-Glu24; C-terminal amide (NH2)
B6: (D-Tyr)-Aib-EGTFTSDYSI-αMeL-LD-Orn-K((2-[2-(2-Amino-ethoxy)-ethoxy]-acetyl)2-(γ-Glu)-CO-(CH2)16-CO2H)AQ-Aib-AFIE-αMeY-LIAGGPSSGAPPPS-NH2 (peptide)
peptide: B1 peptide with V23I, Y25X, E28A
modifications: D-Tyr1; Aib2; αMeL13; Orn16; K17 conjugated to (2-[2-(2-Amino-ethoxy)-ethoxy]-acetyl)2-(γ-Glu)-CO-(CH2)16-CO2H; Aib20; αMeY25; C-terminal amide (NH2)
B7: (D-Tyr)-Aib-EGTFTSDYSI-αMeL-LD-Orn-K((2-[2-(2-Amino-ethoxy)-ethoxy]-acetyl)2-(γ-Glu)-CO-(CH2)16-CO2H)AQ-Aib-EFIEYLIAGGPSSGAPPPS-NH2 (peptide)
peptide: B1 peptide with A21E, V23I, E28A
modifications: D-Tyr1; Aib2; αMeL13; Orn16; K17 conjugated to (2-[2-(2-Amino-ethoxy)-ethoxy]-acetyl)2-(γ-Glu)-CO-(CH2)16-CO2H; Aib20; C-terminal amide (NH2)
B8: (D-Tyr)-Aib-EGTFTSDYSI-αMeL-LD-Orn-K((2-[2-(2-Amino-ethoxy)-ethoxy]-acetyl)2-(γ-Glu)-CO-(CH2)18-CO2H)AQ-Aib-AFV-(D-Glu)-YLIAGGPSSGAPPPS-NH2 (peptide)
peptide: B1 peptide with E24X, E28A
modifications: D-Tyr1; Aib2; αMeL13; Orn16; K17 conjugated to (2-[2-(2-Amino-ethoxy)-ethoxy]-acetyl)2-(γ-Glu)-CO-(CH2)18-CO2H; Aib20; D-Glu24; C-terminal amide (NH2)
B9: (D-Tyr)-Aib-EGTFTSDYSI-αMeL-LDKK((2-[2-(2-Amino-ethoxy)-ethoxy]-acetyl)2-(γ-Glu)-CO-(CH2)16-CO2H)AQ-Aib-AFIE-αMeY-LIAGGPSSGAPPPS-NH2 (peptide)
peptide: B1 peptide with X16K, V23I, Y25X, E28A
modifications: D-Tyr1; Aib2; αMeL13; K17 conjugated to (2-[2-(2-Amino-ethoxy)-ethoxy]-acetyl)2-(γ-Glu)-CO-(CH2)16-CO2H; Aib20; αMeY25; C-terminal amide (NH2)
B10: (D-Tyr)-Aib-EGTFTSDYSI-αMeL-LD-Orn-K((2-[2-(2-Amino-ethoxy)-ethoxy]-acetyl)2-(γ-Glu)-CO-(CH2)18-CO2H)AQ-Aib-AFIE-αMeY-LIAGGPSSGAPPPS-NH2 (peptide)
peptide: B1 peptide with V23I, Y25X, E28A
modifications: D-Tyr1; Aib2; αMeL13; Orn16; K17 conjugated to (2-[2-(2-Amino-ethoxy)-ethoxy]-acetyl)2-(γ-Glu)-CO-(CH2)18-CO2H; Aib20; αMeY25; C-terminal amide (NH2)
B11: (D-Tyr)-Aib-EGTFTSDYSI-αMeL-LDKK((2-[2-(2-Amino-ethoxy)-ethoxy]-acetyl)2-(γ-Glu)-CO-(CH2)18-CO2H)AQ-Aib-AFV-(D-Glu)-YLIAGGPSSGAPPPS-NH2 (peptide)
peptide: B1 peptide with X16K, E24X, E28A
modifications: D-Tyr1; Aib2; αMeL13; K17 conjugated to (2-[2-(2-Amino-ethoxy)-ethoxy]-acetyl)2-(γ-Glu)-CO-(CH2)18-CO2H; Aib20; D-Glu24; C-terminal amide (NH2)
B12: (D-Tyr)-Aib-EGTFTSDYSI-αMeL-LDKK((2-[2-(2-Amino-ethoxy)-ethoxy]-acetyl)-(γ-Glu)-CO-(CH2)18-CO2H)AQ-Aib-AFIE-αMeY-LIAGGPSSGAPPPS-NH2 (peptide)
peptide: B1 peptide with X16K, V23I, Y25X, E28A
modifications: D-Tyr1; Aib2; αMeL13; K17 conjugated to (2-[2-(2-Amino-ethoxy)-ethoxy]-acetyl)-(γ-Glu)-CO-(CH2)18-CO2H; Aib20; αMeY25; C-terminal amide (NH2)
B13: (D-Tyr)-Aib-EGTFTSDYSI-αMeL-LD-Orn-K((2-[2-(2-Amino-ethoxy)-ethoxy]-acetyl)2-(γ-Glu)-CO-(CH2)18-CO2H)AQ-Aib-DFIEYLIAGGPSSGAPPPS-NH2 (peptide)
peptide: B1 peptide with A21D, V23I, E28A
modifications: D-Tyr1; Aib2; αMeL13; Orn16; K17 conjugated to (2-[2-(2-Amino-ethoxy)-ethoxy]-acetyl)2-(γ-Glu)-CO-(CH2)18-CO2H; Aib20; C-terminal amide (NH2)
B14: (D-Tyr)-Aib-EGTFTSDYSI-αMeL-LD-Orn-K((2-[2-(2-Amino-ethoxy)-ethoxy]-acetyl)2-(γ-Glu)-CO-(CH2)16-CO2H)AQ-Aib-EFIE-αMeY-LIAGGPSSGAPPPS-NH2 (peptide)
peptide: B1 peptide with A21E, V23I, Y25X, E28A
modifications: D-Tyr1; Aib2; αMeL13; Orn16; K17 conjugated to (2-[2-(2-Amino-ethoxy)-ethoxy]-acetyl)2-(γ-Glu)-CO-(CH2)16-CO2H; Aib20; αMeY25; C-terminal amide (NH2)
B15: (D-Tyr)-Aib-EGTFTSDYSI-αMeL-LDKK((2-[2-(2-Amino-ethoxy)-ethoxy]-acetyl)2-(γ-Glu)-CO-(CH2)18-CO2H)AQ-Aib-AFIE-αMeY-LIAGGPSSGAPPPS-NH2 (peptide)
peptide: B1 peptide with X16K, V23I, Y25X, E28A
modifications: D-Tyr1; Aib2; αMeL13; K17 conjugated to (2-[2-(2-Amino-ethoxy)-ethoxy]-acetyl)2-(γ-Glu)-CO-(CH2)18-CO2H; Aib20; αMeY25; C-terminal amide (NH2)
B16: (D-Tyr)-Aib-EGTFTSDYSI-αMeL-LDKK((2-[2-(2-Amino-ethoxy)-ethoxy]-acetyl)2-(γ-Glu)-CO-(CH2)18-CO2H)AQ-Aib-EFIE-αMeY-LIEGGPSSGAPPPS-NH2 (peptide)
peptide: B1 peptide with X16K, A21E, V23I, Y25X
modifications: D-Tyr1; Aib2; αMeL13; K17 conjugated to (2-[2-(2-Amino-ethoxy)-ethoxy]-acetyl)2-(γ-Glu)-CO-(CH2)18-CO2H; Aib20; αMeY25; C-terminal amide (NH2)
B17: (D-Tyr)-Aib-EGTFTSDYSI-αMeL-LD-Orn-K((2-[2-(2-Amino-ethoxy)-ethoxy]-acetyl)2-(c-Glu)-CO-(CH2)18-CO2H)AQ-Aib-EFIEYLIAGGPSSG-NH2 (peptide)
peptide: XXEGTFTSDYSIXLDXKAQXEFIEYLIAGGPSSG
modifications: D-Tyr1; Aib2; αMeL13; Orn16; K17 conjugated to (2-[2-(2-Amino-ethoxy)-ethoxy]-acetyl)2-(c-Glu)-CO-(CH2)18-CO2H ('c-Glu' as printed, presumably γ-Glu); Aib20; C-terminal amide (NH2)
B18: Y-Aib-EGTFTSDYSI-αMeL-LDKK((2[2-(2-Amino-ethoxy)-ethoxy]-acetyl)2-(γ-Glu)-CO-(CH2)18-CO2H)AQ-Aib-EFIE-αMeY-LIAGGPSSGAPPPS-NH2 (peptide)
peptide: YXEGTFTSDYSIXLDKKAQXEFIEXLIAGGPSSGAPPPS
modifications: Aib2; αMeL13; K17 conjugated to (2-[2-(2-Amino-ethoxy)-ethoxy]-acetyl)2-(γ-Glu)-CO-(CH2)18-CO2H; Aib20; αMeY25; C-terminal amide (NH2)
B19: (D-Tyr)-Aib-EGTFTSDYSI-αMeL-LDKK((2-[2-(2-Amino-ethoxy)-ethoxy]-acetyl)2-(γ-Glu)-CO-(CH2)16-CO2H)AQ-Aib-EFIE-αMeY-LIAGGPSSGAPPPS-NH2 (peptide)
peptide: B18 peptide with Y1X
modifications: D-Tyr1; Aib2; αMeL13; K17 conjugated to (2-[2-(2-Amino-ethoxy)-ethoxy]-acetyl)2-(γ-Glu)-CO-(CH2)16-CO2H; Aib20; αMeY25; C-terminal amide (NH2)
B20: (D-Tyr)-Aib-EGTFTSDYSI-αMeL-LDKK((2-[2-(2-Amino-ethoxy)-ethoxy]-acetyl)-(γ-Glu)-CO-(CH2)18-CO2H)AQ-Aib-EFIE-αMeY-LIAGGPSSGAPPPS-NH2 (peptide)
peptide: B18 peptide with Y1X
modifications: D-Tyr1; Aib2; αMeL13; K17 conjugated to (2-[2-(2-Amino-ethoxy)-ethoxy]-acetyl)-(γ-Glu)-CO-(CH2)18-CO2H; Aib20; αMeY25; C-terminal amide (NH2)

These binders were tested against T1, human gastric inhibitory peptide receptor (GIPR) (human, UniProt P48546 22-466) (assay: cell-based or functional assay).
T1 sequence (looked up): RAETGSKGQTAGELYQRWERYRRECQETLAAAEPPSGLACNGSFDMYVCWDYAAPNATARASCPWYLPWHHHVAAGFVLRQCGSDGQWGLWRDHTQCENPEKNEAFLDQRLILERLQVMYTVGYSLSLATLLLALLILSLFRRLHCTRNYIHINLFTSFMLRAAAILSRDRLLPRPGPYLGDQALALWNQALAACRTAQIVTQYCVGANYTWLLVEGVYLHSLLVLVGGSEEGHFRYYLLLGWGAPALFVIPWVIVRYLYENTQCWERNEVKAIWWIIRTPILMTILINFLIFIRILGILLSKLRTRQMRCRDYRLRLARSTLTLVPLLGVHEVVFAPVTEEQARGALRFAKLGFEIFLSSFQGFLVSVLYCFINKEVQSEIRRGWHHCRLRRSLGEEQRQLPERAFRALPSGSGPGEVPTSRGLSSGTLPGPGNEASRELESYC

In order of rising “hGIPR cAMP EC50 ratio” value:
1. B7  0.109
2. B11  0.261
3. B12  0.287
4. B5  0.347
5. B8  0.347
6. B3  0.393
7. B13  0.499
8. B1  0.53
9. B10  0.598
10. B16  0.672
11. B20  0.68
12. B17  0.704
13. B9  0.734
14. B15  0.784
15. B2  0.793
16. B4  0.835
17. B6  0.976
18. B14  1.13
19. B19  1.76
20. B18  5.85

The binders below were run against human GLP-1 receptor (GLP-1R) (human, UniProt P43220 24-463) (assay: cell-based or functional assay).

In order of falling “hGLP1R cAMP EC50 ratio” value:
1. B18  0.386
2. B13  0.319
3. B7  0.299
4. B3  0.206
5. B6  0.199
6. B14  0.178
7. B17  0.172
8. B1  0.171
9. B19  0.169
10. B9  0.159
11. B15  0.155
12. B4  0.146
13. B2  0.142
14. B16  0.114
15. B8  0.0805
16. B20  0.0741
17. B10  0.074
18. B12  0.0621
19. B5  0.0303
20. B11  0.0259
